In article PMC3295541 (Biochemistry, 2010):

B1: PdxB (4-phospho-D-erythronate dehydrogenase) from E. coli (enzyme, UniProt P05459 1-378, looked up)
chain: MKILVDENMPYARDLFSRLGEVTAVPGRPIPVAQLADADALMVRSVTKVNESLLAGKPIKFVGTATAGTDHVDEAWLKQAGIGFSAAPGCNAIAVVEYVFSSLLMLAERDGFSLYDRTVGIVGVGNVGRRLQARLEALGIKTLLCDPPRADRGDEGDFRSLDELVQRADILTFHTPLFKDGPYKTLHLADEKLIRSLKPGAILINACRGAVVDNTALLTCLNEGQKLSVVLDVWEGEPELNVELLKKVDIGTSHIAGYTLEGKARGTTQVFEAYSKFIGHEQHVALDTLLPAPEFGRITLHGPLDQPTLKRLVHLVYDVRRDDAPLRKVAGIPGEFDKLRKNYLERREWSSLYVICDDASAASLLCKLGFNAVHHPAR

What was measured:
PdxB = PdxB (Escherichia coli, UniProt P05459); assay: coupled assay with SerC and PdxA, NADH formation at […] nm; format: biochemical
purified protein [1] = substrate: O=C(O)[C@H](O)[C@H](O)COP(=O)(O)O; assay: purified protein; format: biochemical, Escherichia coli; settings: αKG 2 mM, TND buffer pH 8.0, room temperature
purified protein [2] = substrate: O=C(O)CC(=O)C(=O)O; assay: purified protein; format: biochemical, Escherichia coli; settings: 4PE 29 μM, TND buffer pH 8.0, room temperature
purified protein [3] = substrate: CC(=O)C(=O)O; assay: purified protein; format: biochemical, Escherichia coli; settings: 4PE 29 μM, TND buffer pH 8.0, room temperature
purified protein [4] = substrate: O=C(O)CCC(=O)C(=O)O; assay: purified protein; format: biochemical, Escherichia coli; settings: 4PE 29 μM, TND buffer pH 8.0, room temperature
SEC = biological target: the molecule itself; assay: SEC

| Molecule | IC50 (PdxB) [µM] | Km (purified protein [1]) [µM] | Km (purified protein [2]) [µM] | kcat (purified protein [2]) [s⁻¹] | kcat/Km (purified protein [2]) [M⁻¹ s⁻¹] | Km (purified protein [3]) [µM] | kcat (purified protein [3]) [s⁻¹] | kcat/Km (purified protein [3]) [M⁻¹ s⁻¹] | Km (purified protein [4]) [µM] | kcat (purified protein [4]) [s⁻¹] | kcat/Km (purified protein [4]) [M⁻¹ s⁻¹] | stoichiometry N (SEC) |
| --- | --- | --- | --- | --- | --- | --- | --- | --- | --- | --- | --- | --- |
| O=C(O)CC[C@H](O)C(=O)O [L-2-HGA] | > 2000 | – | – | – | – | – | – | – | – | – | – | – |
| B1 | – | 2.9 ± 1.3 | 86 ± 19 | 1.1 ± 0.31 | 13000 ± 2100 | 128 ± 20 | 1.3 ± 0.14 | 9900 ± 160 | 93 ± 19 | 1 ± 0.24 | 11000 ± 2400 | 2 |
